Changes are numbered by the printed parent chain. Names and notes keep the numbering of the source. Values belong to the binder of their own block, whether it stands above or below them.
Assays:
HA-tagged ASK1-WT [1] = target: T1, HA-tagged ASK1-WT (UniProt Q99683 1-1374); experiment: cell-based or functional assay
T1 sequence (looked up): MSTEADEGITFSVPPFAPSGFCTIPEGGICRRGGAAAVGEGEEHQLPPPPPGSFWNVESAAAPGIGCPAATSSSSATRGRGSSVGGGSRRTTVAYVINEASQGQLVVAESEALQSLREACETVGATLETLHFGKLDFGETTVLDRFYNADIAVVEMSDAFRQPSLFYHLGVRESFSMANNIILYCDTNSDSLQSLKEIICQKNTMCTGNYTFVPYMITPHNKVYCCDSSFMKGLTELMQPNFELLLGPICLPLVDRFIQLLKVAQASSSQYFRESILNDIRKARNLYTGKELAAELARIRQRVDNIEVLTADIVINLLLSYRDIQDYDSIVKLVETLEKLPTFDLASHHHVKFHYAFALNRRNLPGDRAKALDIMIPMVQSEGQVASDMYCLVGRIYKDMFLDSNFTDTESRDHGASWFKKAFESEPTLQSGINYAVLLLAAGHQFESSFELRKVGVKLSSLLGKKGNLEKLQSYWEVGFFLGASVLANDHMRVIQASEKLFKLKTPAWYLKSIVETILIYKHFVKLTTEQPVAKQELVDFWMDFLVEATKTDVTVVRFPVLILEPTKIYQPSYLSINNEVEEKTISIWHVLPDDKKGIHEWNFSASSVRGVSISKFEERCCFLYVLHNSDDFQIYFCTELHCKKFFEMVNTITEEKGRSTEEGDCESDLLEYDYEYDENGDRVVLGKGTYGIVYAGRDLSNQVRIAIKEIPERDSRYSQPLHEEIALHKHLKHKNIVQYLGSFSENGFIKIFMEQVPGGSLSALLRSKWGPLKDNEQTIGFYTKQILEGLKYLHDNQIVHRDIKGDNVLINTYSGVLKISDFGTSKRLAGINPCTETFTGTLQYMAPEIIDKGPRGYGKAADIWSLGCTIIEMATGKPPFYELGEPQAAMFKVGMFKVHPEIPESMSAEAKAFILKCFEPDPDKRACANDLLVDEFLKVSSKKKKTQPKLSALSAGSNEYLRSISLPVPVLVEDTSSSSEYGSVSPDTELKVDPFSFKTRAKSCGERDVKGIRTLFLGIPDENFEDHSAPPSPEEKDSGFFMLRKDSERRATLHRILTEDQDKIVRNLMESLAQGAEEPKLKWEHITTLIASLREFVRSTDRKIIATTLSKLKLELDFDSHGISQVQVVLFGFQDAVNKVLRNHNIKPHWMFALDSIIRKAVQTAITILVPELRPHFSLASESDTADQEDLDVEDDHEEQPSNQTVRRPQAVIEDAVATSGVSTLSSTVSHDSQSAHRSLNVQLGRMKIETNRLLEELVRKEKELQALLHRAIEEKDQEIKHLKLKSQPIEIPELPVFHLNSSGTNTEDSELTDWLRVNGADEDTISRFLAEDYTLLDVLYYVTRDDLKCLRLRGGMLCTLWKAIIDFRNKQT

HA-tagged ASK1-WT [2] = target: T1, HA-tagged ASK1-WT; experiment: co-immunoprecipitation from BAEC (anti-Flag IP, anti-HA blot)
HA-tagged ASK1-WT [3] = target: T1, HA-tagged ASK1-WT; experiment: GST pull-down from BAEC lysate, anti-HA Western blot

B1: Flag-tagged Trx-WT (enzyme, not shown: small tags and cut ends)
chain: MVKQIESKTAFQEALDAAGDKLVVVDFSATWCGPCKMIKPFFHSLSEKYSNVIFLEVDVDDCQDVASECEVKCMPTFQFFKKGQKVGEFSGANKEKLEATINELV
cell survival in ASK1-induced EC death (GFP co-transfection killing assay) (HA-tagged ASK1-WT [1]): 92%
inhibition of ASK1-induced caspase 3 activity (HA-tagged ASK1-WT [1]): 50%

B2: Flag-tagged Trx-C35S (enzyme, not shown: small tags and cut ends)
chain: B1 chain with C35S
cell survival in ASK1-induced EC death (GFP co-transfection killing assay) (HA-tagged ASK1-WT [1]): 105%
inhibition of ASK1-induced caspase 3 activity (HA-tagged ASK1-WT [1]): 52%

B5: Flag-tagged Trx-C32S (enzyme, not shown: small tags and cut ends)
chain: B1 chain with C32S
cell survival in ASK1-induced EC death (GFP co-transfection killing assay) (HA-tagged ASK1-WT [1]): 80%
inhibition of ASK1-induced caspase 3 activity (HA-tagged ASK1-WT [1]): 48%

Second part, the binder after the results:

binding result (HA-tagged ASK1-WT [2]): no binding
B3: Flag-tagged Trx-CS (enzyme)
chain: B1 chain with C32S, C35S
notes: Expressed by transfection in BAEC; not shown: Flag tag of the Flag-vector

binding result (HA-tagged ASK1-WT [3]): no binding
B4: GST-Trx-CS (enzyme, not shown: a dimerising Fc or GST; large carriers; small tags and cut ends)
chain: B1 chain with C32S, C35S
notes: also called double-mutant of C32S and C35S
